Target: T1, PHF14 ePHD domain E430A K435A (Homo sapiens, UniProt O94880 382-499, E430A;K435A)
T1 sequence: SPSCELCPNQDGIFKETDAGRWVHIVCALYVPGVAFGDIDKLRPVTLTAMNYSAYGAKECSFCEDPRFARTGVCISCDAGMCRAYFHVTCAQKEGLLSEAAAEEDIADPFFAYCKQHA
Assay: SPR; protein immobilized on CM5; SPR: HBS-P (10 mM HEPES pH 7.4, 150 mM NaCl, 0.05% P20), 25 °C, 1:1 Langmuir fit; EMSA: LightShift kit protocol, 0.5x TBE native PAGE, buffer not stated
Conditions: protein: recombinant; tags: His (EMSA, purification method); FLAG (SPR); label: biotin (EMSA); blunt

B1: CG-rich probe, unmethylated (dsDNA)
DNA 1: ACGGCTCGTCGCTACGGCTCGTCGCT
DNA 2: AGCGACGAGCCGTAGCGACGAGCCGT
  Kd: 0.275 µM

From publication PMC10113255, “PHF14 enhances DNA methylation of SMAD7 gene to promote TGF-β-driven lung adenocarcinoma metastasis”
